Laboratory results: patent US20040106198A1, “Inhibition of peptide cleavage in plants” (LARGE SCALE BIOLOGY CORPORATION, priority 2002, published 2004)

Tested on: CD34+
Assay: CD34+ proliferation assays
Type: cell-based
Settings: proteins purified from plants
Protocol: The vectors were used to inoculate plant leaves of different sets of plants as described in the examples above. Both plant homogenates and interstitial fluid were extracted as described above. hSCF and pSCF were each purified from 27 plants to yield 0.85 mg (˜15 mg/kg) and 2.5 mg (˜45 mg/kg) of protein respectively.

B1: pSCF: porcine Stem Cell growth Factor expressed in plants from GENEWARE vector (protein)
chain: QGICRNRVTDDVKDVTKLVANLPKDYKITLKYVPGMDVLPSHCWISEMVEQLSVSLTDLLDKFSNISEGLSNYSIIDKLVKIVDDLVECMEEHSFENVKKSSKSPEPRLFTPEKFFGIFNRSIDAFKDLEMVAPKTSECVISSTLTPEKDSRVSVTKPFMLPPVAA
  biological activity in CD34+ proliferation assays: biologically active
